From PMC3970815 (Biochemistry, 2014)
Ends that are not written are not given here. fluorescein = fluorescein label, on the N-terminus

Molecular target: T1, fluorescein-labeled consensus propeptide (FpCon)
T1 peptide: fluorescein-AVFLSREQANQVLQRRRR
Experiment: fluorescence polarisation

B1: Wild-type human gamma-glutamyl carboxylase (GGCX) with a carboxyl-terminal 12-amino acid epitope tag, embedded in DOPC/MSP1D1 nanodiscs (enzyme, UniProt P38435 1-758, looked up)
chain: MAVSAGSARTSPSSDKVQKDKAELISGPRQDSRIGKLLGFEWTDLSSWRRLVTLLNRPTDPASLAVFRFLFGFLMVLDIPQERGLSSLDRKYLDGLDVCRFPLLDALRPLPLDWMYLVYTIMFLGALGMMLGLCYRISCVLFLLPYWYVFLLDKTSWNNHSYLYGLLAFQLTFMDANHYWSVDGLLNAHRRNAHVPLWNYAVLRGQIFIVYFIAGVKKLDADWVEGYSMEYLSRHWLFSPFKLLLSEELTSLLVVHWGGLLLDLSAGFLLFFDVSRSIGLFFVSYFHCMNSQLFSIGMFSYVMLASSPLFCSPEWPRKLVSYCPRRLQQLLPLKAAPQPSVSCVYKRSRGKSGQKPGLRHQLGAAFTLLYLLEQLFLPYSHFLTQGYNNWTNGLYGYSWDMMVHSRSHQHVKITYRDGRTGELGYLNPGVFTQSRRWKDHADMLKQYATCLSRLLPKYNVTEPQIYFDIWVSINDRFQQRIFDPRVDIVQAAWSPFQRTSWVQPLLMDLSPWRAKLQEIKSSLDNHTEVVFIADFPGLHLENFVSEDLGNTSIQLLQGEVTVELVAEQKNQTLREGEKMQLPAGEYHKVYTTSPSPSCYMYVYVNTTELALEQDLAYLQELKEKVENGSETGPLPPELQPLLEGEVKGGPEPTPLVQTFLRRQQRLQEIERRRNTPFHERFFRFLLRKLYVFRRSFLMTCISLRNLILGRPSLEQLAQEVTYANLRPFEAVGELNPSNTDSSHSNPPESNPDPVHSEF
modifications: glycoprotein (glycosylation sites shown in Figure 3); disulfide bond between cysteine 99 and cysteine 450
stoichiometry N: 1 propeptide per GGCX-nanodisc
